# B1: GDC-1: Glyphosate resistance-conferring decarboxylase protein (SEQ ID NO:22) with TPP-binding domains, homologous to pyruvate decarboxylase (protein)
# chain: MASINIRVQNLEQPMDVAEYLFRRLHEIGIRSIHGLPGDYNPLALDYLPSCGLRWVGSVNELNAAYAADGYARVKQMGALITTFGVGELSAINGVAGAFSEHVPVVHIVGCPSTASQRNGMLLHHTLGNGDFNIFANMSAQISCEVAKLTNPAEIATQIDHALRVCFIRSRPVYIMLPTDMVQAKVEGARLKEPIDLSEPPNDPEKEAYVVDVVLKYLRAAKNPVILVDACAIRHRVLDEVHDLIEKTNLPVFVTPMGKGAVNEEHPTYGGVYAGDGSHPPQVKDMVESSDLILTIGALKSDFNTAGFSYRTSQLNTIDLHSDHCIVKYSTYPGVQMRGVLRQVIKQLDASEINAQPAPVVENEVAKNRDNSPVITQAFFWPRVGEFLKKNDIVITETGTANFGIWDTKFPSGVTALSQVLWGSIGWSVGACQGAVLAAADDNSDRRTILFVGDGSFQLTAQELSTMIRLKLKPIIFVICNDGFTIERFIHGMEAEYNDIANWDFKALVDVFGGSKTAKKFAVKTKDELDSLLTDPTFNAAECLQFVELYMPKEDAPRALIMTAEASARNNAKTE
# modifications: Fungal isolate from soil sample
# B2: GDC-2: Glyphosate resistance-conferring decarboxylase protein (SEQ ID NO:15) with TPP-binding domains, homologous to acetolactate synthase (protein)
# chain: MMLRSRQASKALRALGQARHFTSTTQPAAVQAPRKVASGQRNQATAATATSAAPNVRATPSPAFNAEEQQQQKHSHVQPLVNPQKSDMDESFIGKTGGEIFHEMMLRQGVKHIFGYPGGAILPVFDAIYNSKHFDFILPRHEQGAGHMAEGYARASGKPGVVLVTSGPGATNVVTPMQDALSDGTPLVVFCGQVPTSAIGSDAFQEADVVGISRACTKWNVMVKNVAELPRRINEAFEIATSGRPGPVLVDLPKDVTAGILRRAIPTETALPALPSAASRAAMESSRKHLEHTIKRVADLVNKAKQPVIYAGQGIIQSEGGPELLKELADKASIPVTTTLQGLGGFDELDEKSLHMLGMHGSAYANMAMQEADLIIALGARFDDRVTLNVAKFAPGARAAAAEKRGGIVHFEVMPKNINKVVQATEAVEGNVGSNLKLLLPEVQAKTMDDRKEWFGKINEWKKKWPLSHYERAERHGLIKPQTLIEELSKLTADRKDKTYIATGVGQHQMWTAQHFRWRHPRSMITSGGLGTMGFGLPAAIGAKVAQPDALVFDIDGDASFGMTLTELATAAQFNIGVKVIVLNNEEQGMVTQWQNLFYEDRYAHTHQVNPDFMKLAESMRVQGRRCVDPEDVVDSLKWLINTDGPALLEVVTDKKVPVLPMVPAGSALHEFLVFDGEKDKKRRELMRERTSGLHG
# modifications: Fungal isolate from soil sample
# Tests used:
# E. coli = test: Growth of E. coli clones in M9 minimal media containing glyphosate (OD600); assay type: cell-based; details: 37° C., 28 hours after inoculation, triplicate
# Description: Starter cultures of E. coli containing GDC-1 (full), GDC-2, or vector alone were grown overnight in LB media, diluted 1:1000 into 3 ml M9 minimal media containing 0, 2, 5, 10, 20 and 30 mM glyphosate and grown at 37° C. Each strain was grown in triplicate at each concentration. OD600 was measured at 0, 7, 24, and 28 hours after inoculation.
# E. coli ΔaroA = test: Genetic complementation of aroA (EPSP synthase) deletion mutant; assay type: cell-based; details: ΔaroA plated on LB, M63, and M63 with phenylalanine, tryptophan, tyrosine
# From the text: The E. coli aroA gene codes for EPSP synthase, the target enzyme for glyphosate. […] However, genes encoding EPSPS activity can restore ability to grow […] upon aroA mutant E. coli strains. Thus, a test for genetic complementation of an aroA mutant is a highly sensitive method to test if a gene is capable of functioning as an EPSPS in E. coli. Such tests for gene function by genetic complementation are known in the art.
# A deletion of the aroA gene was created in E. coli XL-1 MRF′ (Stratagene) by PCR/recombination methods known in the art and outlined by Datsenko and Wanner, (2000) Proc. Natl. Acad. Sci. USA 97:6640-6645. This system is based on the Red system that allows for chromosomal disruptions of targeted sequences. A large portion (1067 nt of the 1283 nt) of the aroA coding region was disrupted by the engineered deletion.
# The ability of an EPSPS to complement the mutant phenotype of ΔaroA was confirmed. Clone pAX482, an E. coli expression vector containing the wild-type E. coli aroA gene, was transformed into ΔaroA, and transformed cells were selected. These cells (containing a functional aroA gene residing on a plasmid) were then plated on LB media, M63, and M63 with amino acid supplements. […]
# [1] = Standard pyruvate decarboxylase assay, coupled with alcohol dehydrogenase (absorbance at 340 nm); assay type: biochemical; details: 100 ng of GDC-1 protein; decrease in absorbance at 340 nm
# Description: 100 ng of GDC-1 protein was tested for activity in a standard pyruvate decarboxylase assay (Gounaris et al. (1971) J. of Biol. Chem. 246:1302-1309). This assay is a coupled reaction where in the first step the pyruvate decarboxylase (PDC) converts pyruvate to acetaldehyde and CO2. The acetaldehyde produced in this reaction is a substrate for alcohol dehydrogenase, which converts acetaldehyde and β-NADH to ethanol and β-NAD. Thus, PDC activity is detected by virtue of utilization of β-NADH as decrease in absorbance at 340 nm in a spectrophotometer. GDC-1 as well as a control enzyme (pyruvate decarboxylase, Sigma) were tested in this assay.
# [2] = In vitro modification of C14 labeled glyphosate, products analysed by HPLC; assay type: biochemical; details: 100 ng protein, 2 mM glyphosate, Na-Citrate pH 6.0, 1 mM TPP, 2 mM MgCl2, 60 minutes
# Description: The ability of GDC-1 to modify glyphosate in vitro was tested by incubating GDC-1 with a mixture of radiolabeled and non-labeled glyphosate, and analyzing the reaction products by HPLC.
# 100 ng of GDC-1 purified protein was incubated with 20,000 cpm of C^14 labeled glyphosate (NaOOCCH2NH^14CH2PO3H2; Sigma catalog #G7014), mixed with unlabelled glyphosate to a final concentration of 2 mM in a reaction buffer of 200 mM Na-Citrate, pH 6.0, 1 mM TPP, 2 mM MgCl2. Reaction was allowed to proceed 60 minutes, then 5 μl was applied to HPLC column (Dionex AminoPac PA10 analytical (and guard) column, anion exchange resin; Dionex Corporation). The column was equilibrated with 150 mM sodium hydroxide. Fractions were eluted with a sodium acetate gradient of 150-300 mM sodium acetate. Single drop (40 uL) fractions were collected, and the radioactivity present in each fraction determined using a 96-well scintillation counter. […] Control experiments lacking purified GDC-1 show no peak at this elution time.
# [3] = Acetolactate synthase activity (acetoin detection, absorbance 525 nm); assay type: biochemical; details: 50 mM pyruvate, pH 7.0, 2 hours at 37° C.
# Description: Acetolactate synthases are decarboxylating enzymes that condense two pyruvate molecules to form acetolactate with the release of a CO2 moiety from one of the pyruvate substrates. In the detection of the enzymatic reaction described by Pang and Duggleby (Pang and Duggleby (1999) Biochemistry 18:5222-5231), the product acetolactate is converted to acetoin by incubation with 1% H2SO4 for 15 minutes at 60° C. followed by neutralization with KOH. The acetoin is then detected as described by Westerfeld (Westerfeld (1945) J. Biol. Chem. 161:495-502), using 0.15% creatine and 1.5% alpha-naphthol (dissolved in 2.5 N NaOH). The red colored reaction product is quantified by absorbance at 525 nm.
# Samples containing either 5 μg or 10 μg of GDC-2 were incubated in 50 mM pyruvate, 1 mM […] pyrophosphate, 10 mM MgCl2, 0.01 mM Flavin adenine dinucleotide (FAD), 100 mM potassium phosphate buffer pH 7.0 (total reaction volume of 50 μl) for 2 hours at 37° C. The reaction was stopped by the addition of 1 μl of 50% sulfuric acid (H2SO4) and incubated at 60° C. for 15 minutes. The reaction was neutralized by the addition of 30 μl of 1 N KOH followed by the addition of 10 μl of 1.5% creatine and 10 μl of 15% alpha-napthol dissolved in 2.5 N NaOH. The red colored reaction product was quantified by absorbance at 525 nm.
Molecule,OD600 Mean (E. coli; 0 mM glyphosate),OD600 Mean (E. coli; 2 mM glyphosate),OD600 Mean (E. coli; 5 mM glyphosate),OD600 Mean (E. coli; 10 mM glyphosate),OD600 Mean (E. coli; 20 mM glyphosate),Complementation of the aroA mutation (growth of ΔaroA on M63 minimal media) (E. coli ΔaroA),Pyruvate decarboxylase activity [1],Ability to modify glyphosate in vitro [2],Absorbance 525 nm (acetolactate synthase activity) ([3]; 5 μg GDC-2),Absorbance 525 nm (acetolactate synthase activity) ([3]; 10 μg GDC-2)
B1,0.049,0.056,0.055,0.057,0.058,neither GDC-1 nor GDC-2 are capable of complementing the aroA mutation,showed activity as a pyruvate decarboxylase,converts a portion of the labeled glyphosate to a product,,
B2,0.050,0.054,0.056,0.056,0.058,neither GDC-1 nor GDC-2 are capable of complementing the aroA mutation,,,1.99,3.13

# — patent US7807881B2, “Methods to confer herbicide resistance” (Athenix Corp., priority 2003, dated 2010)
